Where two headings read alike, the source gives them in different places. *: point of attachment. Nonanoyl = CCCCCCCCC(=O)*

Data on ten molecules can be found in patent US20030158387A1.

Experiment [1] addresses chemokine receptor 1 (CCR1) (UniProt P56482).
Experiment [2] has the same target. The source holds these as a separate data set.
The target is the same in experiment [3]. Description: cell-based or functional assay.
Experiment [4] has the same target. Description: competition with 125I-RANTES, membranes of CHO-K1 cells expressing CCR1, filtration, one site competition model; 125I-Rantes tracer, CCR1 membranes.
Experiment [5] has the same target. Description: competition radioligand binding, membranes of CHO-K1 cells expressing CCR1, tracer [125I]-MIP-1 alpha.
Experiment [6] shares this target. Description: competition with 125I-RANTES for binding to CCR1.
For experiment [7] the target is unchanged. Description: competition radioligand binding, membranes of CHO-K1 cells expressing CCR1, tracer [125I]-MIP-1 alpha. This is another data set of the same source.
Experiment [8] shares this target. This is another data set of the same source.
Experiment [9] has as its target chemokine receptor 5 (CCR5) (human), P51681. Put plainly: competition radioligand binding, membranes of CHO-K1 cells expressing CCR5, tracer [125I]-MIP-1 beta. To be noted: remark: other sources report otherwise.
For experiment [10] the target is unchanged. Description: competition radioligand binding, membranes of CHO-K1 cells expressing CCR5, tracer [125I]-MIP-1 beta; mean ± SEM. To be noted: remark: other sources report otherwise.
Experiment [11] addresses chemokine receptor 1 (CCR1) (UniProt P56482). Description: competition radioligand binding on CCR1 (assay not given).

Sequence of chemokine receptor 5 (CCR5) (human), P51681 (P51681 whole entry): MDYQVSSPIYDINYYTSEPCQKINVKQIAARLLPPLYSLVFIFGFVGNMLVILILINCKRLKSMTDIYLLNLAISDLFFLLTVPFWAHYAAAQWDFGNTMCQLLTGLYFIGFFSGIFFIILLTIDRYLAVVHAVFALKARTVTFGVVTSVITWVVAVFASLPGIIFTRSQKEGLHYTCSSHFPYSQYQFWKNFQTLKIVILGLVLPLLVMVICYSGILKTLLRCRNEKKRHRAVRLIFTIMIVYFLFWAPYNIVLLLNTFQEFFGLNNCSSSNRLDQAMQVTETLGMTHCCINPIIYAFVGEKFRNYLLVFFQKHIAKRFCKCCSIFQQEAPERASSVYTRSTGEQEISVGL

B1: processed human chemokine PHC-1 (HCC-1[9-74]) (ligand)
chain: GPYHPSECCFTYTTYKIPRQRIMDYYETNSQCSKPGIVFITKRGHSVCTNPSDKWVQDYIKDMKEN
As a reminder, the EC50 (read off the curve) is the concentration at which the effect is half-maximal. As usually defined, the IC50 is the midpoint of a concentration-inhibition curve. A word on the Ki: it is the dissociation constant of the complex between target and ligand, obtained from inhibition or displacement. The low end stands for higher affinity, the high end for lower affinity. In experiment [1], B1 yielded an EC50 (read off the curve) of 2 nM. Besides, the EC50 (aequorin luminescence, CHO-K1 cells expressing CCR1) in experiment [2] stood at 2.62 nM. In experiment [3], the EC50 of receptor activation (aequorin assay) worked out at 2.8 nM. In addition, in experiment [4], the IC50 worked out at 2.3 nM. In [5], the IC50 (read off the curve) amounted to 0.2 nM. In [6], this molecule yielded a Ki of 0.023 nM.

B2: HCC-1, residues 6-74 (ligand)
chain: SSRGPYHPSECCFTYTTYKIPRQRIMDYYETNSQCSKPGIVFITKRGHSVCTNPSDKWVQDYIKDMKEN
As to B2, in experiment [2], the EC50 (aequorin luminescence, CHO-K1 cells expressing CCR1) was 262 nM.

B3: HCC-1[11-74] (ligand)
chain: YHPSECCFTYTTYKIPRQRIMDYYETNSQCSKPGIVFITKRGHSVCTNPSDKWVQDYIKDMKEN
B3: the EC50 (aequorin luminescence, CHO-K1 cells expressing CCR1) in [2] was 40.3 nM.

B4: HCC-1[10-74] (ligand)
chain: PYHPSECCFTYTTYKIPRQRIMDYYETNSQCSKPGIVFITKRGHSVCTNPSDKWVQDYIKDMKEN
For the molecule B4, the EC50 (read off the curve) in [1] came to 3 nM. In addition, the IC50 (read off the curve) was found to be 0.1 nM in [7] and 0.2 nM in experiment [5]. In experiment [2], this molecule registered an EC50 (aequorin luminescence, CHO-K1 cells expressing CCR1) of 4.32 nM.

B5: HCC-1[12-74] (ligand)
chemokine chain: HPSECCFTYTTYKIPRQRIMDYYETNSQCSKPGIVFITKRGHSVCTNPSDKWVQDYIKDMKEN
Turning to B5, the IC50 (read off the curve) in experiment [5] came to 40 nM.

B6: NNY-HCC-1[10-74] (nonanoyl-HCC-1[10-74]) (ligand)
chain: Nonanoyl-PYHPSECCFTYTTYKIPRQRIMDYYETNSQCSKPGIVFITKRGHSVCTNPSDKWVQDYIKDMKEN
modifications: ends and bridges not checked
In turn, B6 gave an EC50 (read off the curve) in experiment [8] of 4 nM. This molecule also returned an IC50 (read off the curve) in experiment [7] of 0.1 nM. The molecule further gave an EC50 (aequorin luminescence, CHO-K1 cells expressing CCR1) in experiment [2] of 5.9 nM.

B7: HCC-1[7-74] (ligand)
chain: SRGPYHPSECCFTYTTYKIPRQRIMDYYETNSQCSKPGIVFITKRGHSVCTNPSDKWVQDYIKDMKEN
B7: in experiment [2], the EC50 (aequorin luminescence, CHO-K1 cells expressing CCR1) was 218 nM.

B8: RANTES, P13501 24-91 (ligand, UniProt P13501 24-91, looked up)
chain: SPYSSDTTPCCFAYIARPLPRAHIKEYFYTSGKCSNPAVVFVTRKNRQVCANPEKKWVREYINSLEMS
modifications: ends and bridges not checked; also: 125I-labelled where used as tracer, unlabelled in functional assays
In experiment [9], B8 showed an IC50 (read off the curve) of 0.1 nM. For the same molecule, the IC50 in [10] was found to be 0.116 nM.

B9: full size human chemokine HCC-1 (residues 1-74) (ligand)
chain: TKTESSSRGPYHPSECCFTYTTYKIPRQRIMDYYETNSQCSKPGIVFITKRGHSVCTNPSDKWVQDYIKDMKEN
Turning to B9, the Ki in experiment [11] was determined as 100 nM.

B10: HCC-1[8-74] (ligand)
chain: RGPYHPSECCFTYTTYKIPRQRIMDYYETNSQCSKPGIVFITKRGHSVCTNPSDKWVQDYIKDMKEN
Take B10: in experiment [2], the EC50 (aequorin luminescence, CHO-K1 cells expressing CCR1) was found to be 35.2 nM.
